Assay results: patent publication US20110286916A1 (published 2011)
Substitutions are numbered along the chain they refer to.

B1: hN1wc-179 (antibody, human IgG1, lambda, V domains shown)
VH: EVQLVQSGAEVKKPGASVKVSCKASGYNFTGYYMHWVRQAPGQGLEWMGWINPNSGGTNYAQKFQGRVTMTRDTSISTAYMELSRLRSDDTAVYYCATDSFDYWGQGTMVTVSS
VL: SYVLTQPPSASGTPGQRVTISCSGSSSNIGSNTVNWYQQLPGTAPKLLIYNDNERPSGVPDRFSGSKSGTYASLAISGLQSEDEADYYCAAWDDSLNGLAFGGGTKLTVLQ
B2: HN1S3-133 (antibody, human IgG1, lambda, V domains shown)
VH: QVQLVQSGPEVKKPGTSVKVSCKASGFTFTSSAVQWVRQARGQRLEWIGWIVVGSGNTNYAQKFQERVTITRDMSTSTAYMELSSLRSEDTAVYYCVADTVYWGQGTLVTVSS
VL: QSVLTQPPSVSEAPRQRVTISCSGSSSNIGNNAVNWYQQLPGEAPKLLIYYDDLLPSGVSDRFSGSKSGSSASLAISGLQAEDEADYYCATWDDSLNAWVFGGGTKVTVLQ
B3: HN1S3-147 (antibody, human IgG1, lambda, V domains shown)
VH: B2 VH with Q105K
VL: not shown
B4: N1wc621 (scFv, V domains shown)
VH: EVQLVQSGAEVKKPGASVKVSCKASGYTFTGYYIHWVRQAPGQGLEWMGWISPNSGVTNYAQRFQGRVTMSRDTSITTAYMELNRLGSDDTAVYYCAREGREDGVLFDYWGRGTLVTVSS
VL: QAVLTQPSSVSGAPGQTVTISCAGSSSNLGAGYDAHWYQHLPGAVPRLLIYNNSKRPSGVPDRFSASKSGSSASLAITGLQPEDEADYYCQTYDTRLSGSMLFGGGTKVTVL
notes: phage scFv
B5: N1wc441 (scFv, V domains shown)
VH: QVQLVQSGAEVKKPGASVKVSCKAPGYSFTDYYLHWVRQAPGIGLEWVGWINPNNGGTNYAQKFRGRVTMTRDTAINTAYMDMRWLRSDDTAVYYCATDGPPGTGNAFDIWGRGTLVTVSS
VL: SYELTQPPSVSVSPGQTARITCSGDALPDKYVHWYQQKSGQAPVLVLFDDSKRPSGIPERFSGSSSGTVATLIISGAQVEDEGDFFCYSTDSSGNERVFGGGTKLTVL
notes: phage scFv
B6: N1wc45 (scFv, V domains shown)
VH: EVQLVQSGAEVKKPGASVKVSCKASGYSFRSYGIVWVRQAPGQGLEWMGWISAYNGNTNYAQKLQGRVTMTTDTSTSTAYMELRSLRSDDTAVYYCVRGDRHYDILTGYSPVWFDPWGKGTTVTVSS
VL: SSELTQDPAVSVALGQTVRITCQGDSLRSYYASWYQQKPGQAPVLVIYGKNNRPSGIPDRFSGSSSGNTASLTITGAQAEDEADYYCNSRDSSGNHVVFGGGTKLTVL
notes: phage scFv
B7: N1wc281 (scFv, V domains shown)
VH: QVQLQESGAEVKKPGASVKVSCRASGYTFTTNSLHWVRQAPGQGLDWMGVINPRDGSATVAQKFQGRITMTSDTSTSTVFLALSSLTSDDTGVYFCARDGLDYRDTSRILAPTDVWGRGTLVTVSS
VL: QSVLTQPPSVSVSPGQTASITCSGDKLGDKYTFWYQQKPGQSPVLIIYQDTKRPSGIPERFSGSNSGNTATLTISGTQAMDEADYYCQAWDSNTDHVIFGGGTKLTVL
notes: phage scFv
B8: N1wc289 (scFv, V domains shown)
VH: QVQLVQSGAEVKKPGTTVKISCKVSGYKFTDYYIHWVRQAPGKGLEWMGFVDPTDDETRFAEKFQGRLTMTADTSRDTASMELSSLRSEDTAVYYCIRGIAALADWGRGTMVTVSS
VL: QAVLTQPSSLSASPGASASLTCTLRSDINLETSRIYWFQQKPGSPPRYLLRYQSDSDNNLDSGVPSRFSGSKDASANAGILLISGVQSEDEADYHCMIWHSGGSVFGGGTKVTVL
notes: phage scFv
B9: N1wc239 (scFv, V domains shown)
VH: B1 VH with Q6E, M34I, T69I, Q106K
VL: QSVLTQPPSASGTPGQRVAISCSGSHSNIRSNDVYWYQQFPGTAPKLLIYSNDQRPSGVSDRFAGSKSGTSASLAISGLRSEDESDYYCATWDDSLSGVVFGGGTKLTVL
notes: phage scFv
B10: N1wc319 (scFv, V domains shown)
VH: B1 VH with E1Q, K12E, Q106R, M109L
VL: QSVLTQPPSSSGTPGQRVTISCSGSSSNIGSNSVNWYQQLPGAAPKLLIYSDNQRPSGVPDRFSASKSYTSASLAISGLQSGDEADYFCATWDDSLTGLVFGGGTKLTVL
notes: phage scFv
B11: N1wc295 (scFv, V domains shown)
VH: B1 VH with E1Q, V5Q, K63N, Q106R
VL: QSVLTQPPSASGTPGQRVTISCSGNRSNIGSNTVNWYQQLPGTAPKLLIYSNDQRPSGVPDRFSGSKSGTSASLTISGLQSDDEADFYCAAWDDNLNGYVFGSGTKVTVL
notes: phage scFv
B12: N1wc39 (scFv, V domains shown)
VH: EVQLVQSGAEVKKPGASVKLSCKTSGHTFTNYAFHWLRQAPGQRPEWLGWINADNGNTKYSQSFQDRVTITRDISANTAYMEMSRLKSEDTAYYYCARDPWSGVLDHWGKGTLVTVSS
VL: DIQLTQSPSSVSASIGDTVTITCRASQNINKWLAWYQQKPGKAPYLLISTASNLQSGVPSRFSGTGSGTAFTLTISRVQPEDFANYYCQQAFSFPITFGQGTRLEIK
notes: phage scFv
B13: N1wc177 (scFv, V domains shown)
VH: QVQLVQSGAEVKEPGSSVRVSCKSSGGTFSNYAISWVRQAPGQGLEWMGGIIPGFGKTNYAQKFQGRVTITADASTSTTYMELRTLRSGDTAVYYCARDRGPDIGVAHFDSWGKGTMVTVSS
VL: QAVLTQPSSASGTPGQRVIISCSGSSSNIGKYIVNWYQQLPGAAPKLLIYTYNERPSGVPARFSGSTSGTSASLAITGLQSEDEADYYCASWDDSLNVVVFGGGTKLTVL
notes: phage scFv
B14: N1wc535 (scFv, V domains shown)
VH: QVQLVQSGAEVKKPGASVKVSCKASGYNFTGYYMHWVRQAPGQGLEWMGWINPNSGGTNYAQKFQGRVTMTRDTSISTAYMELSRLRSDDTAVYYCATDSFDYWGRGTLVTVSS
VL: QSVLTQPPSASGTPGQRVTLSCSGSSSNIGSNTVNWYQQLPGTAPKVLIYSDNQRPSGVPDRFSGSKSGTSASLAISGLQSDDEAVYYCAGWDDSLNAYLFGTGTKVTVL
notes: phage scFv
B15: N1wc570 (scFv, V domains shown)
VH: B2 VH with Q105R, L108M
VL: QSVLTQPPSASATPGQTVTISCSGSTSNIGNNNVNWYQQVPGTAPKLLMYSNNQRPSGVPDRFSGSRSGTSASLAITALQSEDEADYYCATWDDSLSAWVFGGGTKVTVL
notes: phage scFv
B16: N1wc182 (scFv, V domains shown)
VH: B2 VH
VL: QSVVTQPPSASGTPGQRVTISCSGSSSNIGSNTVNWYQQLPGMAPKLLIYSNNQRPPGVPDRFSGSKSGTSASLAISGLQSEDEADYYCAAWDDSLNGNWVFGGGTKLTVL
notes: phage scFv
B17: N1wc170 (scFv, V domains shown)
VH: QVQLQQSGPEVKKPGASVKISCKTSGYTFSSFGISWVRQAPGQGPEWMGWVSPYSGDTDYAQKFRGRVTMTIDSSTDTAYVEMRSLRSDDTAIYYCANSPISDGSSSSYDNWGKGTLVTVSS
VL: SYELTQPPSVSVAPGQTARITCGGENIGTKSVHWYQQKSGQAPVLVIYEDKKRPSGIPDRFSGSSSGTMATLTITGAQVDDEADYYCYSADNTGDQRMFGGGTKLTVL
notes: phage scFv
B18: N1wc241 (scFv, V domains shown)
VH: EVQLVQSGAEVKKPGASVKVSCKTSGYTFNDYYHHWVRQAPGQGLEWMGWINPHTGVANYAEKYKGRLAMTGDTSISTIYMDLSSLISDDTAIYFCARERSEWRNTVSSPSEYFHHWGKGTLVTVSS
VL: QSVLTQPPSASGTPGQRVTISCSGSFSNIGSNNVYWYQQLAGTAPKLLIYRNNERPSGVPDRFSGSKSGTSASLAISGLRSEDEADYYCAVRDDSLSGHYVFGSGTKVTVL
notes: phage scFv
B19: N1wc301 (scFv, V domains shown)
VH: QVQLQQSGAEVKKPGASVKVSCKASGYIFGTYAIHWVRQAPGQSLEWMGWINAGTGNTKYSQKFQGRVTITMDTSATTAYMELSSLRSGDTAVYYCTRGDYYDSRGYYNRFDYWGRGTLVTVSS
VL: QSVVTQPPSASGTPGQRVTISCSGSSSNIGKNNVYWYQQLPGAAPKLLIYRNHERASGVPDRFSGSKSGTSASLAISGLQSEDEADYYCAARDDSLNGYVFGTGTKVTVL
notes: phage scFv
B20: N1wc586 (scFv, V domains shown)
VH: QVQLVQSGPEVKKPGASVKVSCKAAGYTFPDFYMHWVRQAPGKGPEWVGWINSNSGSTRLAERLEGRVTLTRDTSISTAYMELTSLTSDDTAVYYCARGAYDYVWGTSRYVADAFDIWGQGTLVTVSP
VL: DIVMTQSPSTLSASVGDRVTITCRASQGISSWLAWYQQKPGRAPKVLIYKASTLESGVPSRFSGSGSGTDFTLTISSLQPEDFATYYCQQSYSTPWTFGQGTKLEIK
notes: phage scFv

biological target: T1, Notch1 extracellular fragment (amino acid 19-526) Fc fusion protein, R&D Systems 3647-TK (human, UniProt P46531 19-526); assay: BIAcore SPR, Notch1/Fc on CM5, Mab analyte, 1:1 binding
T1 construct: bought protein; also called Notch1/Fc; Notch1-ECD Fc fusion protein; not shown: Fc of the bought fusion protein
Experimental: All experiments were performed at 25° C. at a flow rate of 40 μl/min. […] FC1 was used as the reference cell. Specific signals were the results of differences of signals obtained on FC2 versus FC1. […] The dissociation phase of the analyte was monitored over a period of time ranging 10-30 minutes. Running buffer was also injected under the same conditions as a reference.
Equilibrium dissociation constant (KD) was calculated by the ratio between dissociation (koff) and association (kon) rate constants.

Row | Binder | Kd [nM] | koff [s⁻¹] | kon [M⁻¹ s⁻¹]
1 | B1 | 7.36 | 0.00363 | 493000
2 | B2 | 0.649 | 0.0004 | 616000
3 | B3 | 0.269 | 0.000285 | 1.06e+06

biological target: T2, human full-length Notch1 with C-terminal FLAG tag, stably expressed on 293 FlpIn (TREx) cells (human, UniProt P46531 19-2555); assay: FACS, phage scFv
T2 construct: tetracycline/doxycycline-induced expression from pcDNA5/FRT/TO-HN1+FLAG; also called hN1; 293_N1

Row | Binder | binding result
4 | B4 | binds
5 | B5 | binds
6 | B6 | binds
7 | B7 | binds
8 | B8 | binds
9 | B9 | binds
10 | B10 | binds
11 | B11 | binds
12 | B12 | binds
13 | B13 | binds
14 | B14 | binds
15 | B15 | binds
16 | B16 | binds
17 | B17 | binds
18 | B18 | binds
19 | B19 | binds
20 | B20 | binds

biological target: T3, human full-length Notch3 with C-terminal FLAG tag, stably expressed on 293 FlpIn (TREx) cells (human, UniProt Q9UM47 40-2321); assay: FACS, phage scFv
T3 construct: whole, on cells; made by the same strategy as the Notch1 line; also called 293-N3; hN3

Row | Binder | binding result
21 | B4 | binds
22 | B5 | binds
23 | B6 | binds
24 | B7 | binds
25 | B8 | binds
26 | B9 | binds
27 | B10 | binds
28 | B11 | binds
29 | B12 | binds
30 | B13 | binds
31 | B14 | binds
32 | B15 | binds
33 | B16 | binds
34 | B17 | binds
35 | B18 | binds
36 | B19 | binds
37 | B20 | binds
